Data reported in patent publication US20080187530A1.

Biological target: formyl peptide receptor-like 1 (FPRL1) (human) (UniProt P25090)
Assay: cell-based or functional assay

UniProt P25090, sequence (P25090 whole entry): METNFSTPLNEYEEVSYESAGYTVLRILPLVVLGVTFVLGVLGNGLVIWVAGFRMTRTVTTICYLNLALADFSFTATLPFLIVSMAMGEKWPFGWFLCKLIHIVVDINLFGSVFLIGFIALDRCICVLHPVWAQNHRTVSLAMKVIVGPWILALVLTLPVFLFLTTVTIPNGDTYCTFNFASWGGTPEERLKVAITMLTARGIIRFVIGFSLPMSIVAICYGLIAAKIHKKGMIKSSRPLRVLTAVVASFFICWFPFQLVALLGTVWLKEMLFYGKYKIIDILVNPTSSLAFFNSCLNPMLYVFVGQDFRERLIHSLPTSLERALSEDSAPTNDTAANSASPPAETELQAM

## LL-37 peptide (from UniProt P49913 134-170)
  decrease in proliferation of HaCaT cells treated with LL-37 after pretreatment with pertussis toxin: 50%
